Laboratory results published in FireProtDB (doi:10.1371/journal.ppat.1004158).

B1: Heterokaryon incompatibility protein s, Q03689 (parent)
chain: MSEPFGIVAGALNVAGLFNNCVDCFEYVQLGRPFGRDYERCQLRLDIAKARLSRWGEAVKINDDPRFHSDAPTDKSVQLAKSIVEEILLLFESAQKTSKRYELVADQQDLVVFEDKDMKPIGRALHRRLNDLVSRRQKQTSLAKKTAWALYDGKSLEKIVDQVARFVDELEKAFPIEAVCHKLAEIEIEEVEDEASLTILKDAAGGIDAAMSDAAAQKIDAIVGRNSAKDIRTEERARVQLGNVVTAAALHGGIRISDQTTNSVETVVGKGESRVLIGNEYGGKGFWDN

Variants of: B1
Conditions: Podospora anserina; pH 7.5; 25 °C; GdnHCl; optical density; structure 2KJ3; whole UniProt chain shown

Row | Variant | ddG of mutation (higher = less stable) [kJ/mol] | unfolding free energy [kJ/mol]
1 | K229A | -6.28 | 18.4
2 | S273A | -5.86 | 18
3 | E272A | -7.95 | 20.1
4 | V264A | -4.18 | 16.7
5 | V267A | -0.837 | 12.1
6 | L241A | -4.18 | 16.3
7 | V239A | -4.18 | 16.3
8 | D288A | -5.02 | 17.2
9 | G278A | 3.35 | 10.5
